In paper PMC8423723, “Regulation of cadherin dimerization by chemical fragments as a trigger to inhibit cell adhesion” (Communications Biology, 2021):

Columns and labels:
[1] = target: C-terminally His-tagged P-cadherin MEC12 (X dimer), on liposomes (human)
[2] = target: P-cadherin MEC12 (X dimer) K14A; experiment: SEC-MALS; conditions: N = 1; parent: est. 33; read off a plot
EC12 (P-cadherin) = target: T1, EC12 (P-cadherin) (Homo sapiens, UniProt P22223); experiment: SPR ABA assay, disruption of EC12 dimer on chip; format: binding; conditions: 100 µM compound, 2 µM EC12 in solution A
T1 construct: gene CDH3; EC1-EC2, residues 1-241, wild type; E. coli, SUMO cut; amine-coupled to CM5 chip

[3] = target: T2, REC12 (P-cadherin monomer mutant) (Homo sapiens, UniProt P22223, INS0R); experiment: SPR, Scatchard analysis of equilibrium responses; format: binding
T2 construct: gene CDH3; EC12 (EC1-EC2, residues 1-241) with Arg inserted at N terminus; biotinylated for chip capture; E. coli Rosetta2(DE3), SUMO tag cut with Ulp1; monomer

[4] = target: T3, REC12 (P-cadherin monomer mutant) (Homo sapiens, UniProt P22223); conditions: pH 7.5, 25 °C, 3 mM CaCl2, 5% DMSO; construct printed only as P-cadherin
T3 construct: gene CDH3
T3 sequence (P22223 107-348, change not shown): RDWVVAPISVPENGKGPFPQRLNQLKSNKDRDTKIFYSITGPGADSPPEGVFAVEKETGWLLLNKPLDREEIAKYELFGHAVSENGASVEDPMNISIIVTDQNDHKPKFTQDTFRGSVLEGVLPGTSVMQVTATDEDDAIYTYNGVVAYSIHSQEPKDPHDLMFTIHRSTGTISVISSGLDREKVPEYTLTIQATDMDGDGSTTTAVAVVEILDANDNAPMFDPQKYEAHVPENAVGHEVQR

T1 sequence (P22223 108-348): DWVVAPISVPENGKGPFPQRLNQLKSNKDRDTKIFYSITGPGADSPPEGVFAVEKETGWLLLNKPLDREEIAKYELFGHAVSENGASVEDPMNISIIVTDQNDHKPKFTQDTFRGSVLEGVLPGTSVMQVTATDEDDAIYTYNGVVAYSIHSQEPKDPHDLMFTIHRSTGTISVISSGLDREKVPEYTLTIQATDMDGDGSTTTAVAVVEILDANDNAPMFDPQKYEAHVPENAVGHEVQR
T2 sequence (P22223 107-348, stated change not applied): as the sequence (P22223 107-348, change not shown) above

## C-terminally His-tagged P-cadherin MEC12 (X dimer), on liposomes (domain or fragment)
[1]
  kobs of liposome aggregation (optical density at 650 nm after addition of CaCl2, one-phase association), in the absence of Hit 1; no aggregation with EDTA or without MEC12: 0.0086
  kobs of liposome aggregation (optical density at 650 nm after addition of CaCl2, one-phase association), in the presence of Hit 1: 0.0033

## P-cadherin MEC12 (X dimer) as used in SEC-MALS and HDX-MS K14A
[2]
  other: molecular weight (SEC-MALS): 24 kDa

## Cc1[nH]c2ccc(Cl)cc2c1CCN [Hit 1]
EC12 (P-cadherin)
  SPR ABA assay, disruption of EC12 dimer on chip: These compounds bound to and disrupted the dimerization
[3]
  Kd: ~916 µM

## NCCc1c[nH]c2ccccc12 [tryptamine]
[4]
  SPR direct binding: only tryptamine bound to P-cadherin
